Experimental data from US20120171723A1.

Target: human zFGF5 (FGF homolog polypeptide) (human) (UniProt O76093)
Test: cell-based or functional assay

human zFGF5 (FGF homolog polypeptide) (human), sequence (O76093 28-207): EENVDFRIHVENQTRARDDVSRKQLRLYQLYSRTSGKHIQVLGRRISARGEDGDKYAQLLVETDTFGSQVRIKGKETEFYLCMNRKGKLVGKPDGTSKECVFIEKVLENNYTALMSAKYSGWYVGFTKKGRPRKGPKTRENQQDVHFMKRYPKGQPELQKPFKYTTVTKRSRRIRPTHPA

Cell Proliferation (percent of control) at 0 fold-excess of soluble receptor (percent of control)	Cell Proliferation (percent of control) at 62.5 fold-excess of soluble receptor (percent of control)	Cell Proliferation (percent of control) at 125 fold-excess of soluble receptor (percent of control)	Cell Proliferation (percent of control) at 250 fold-excess of soluble receptor (percent of control)	Cell Proliferation (percent of control) at 500 fold-excess of soluble receptor (percent of control)	Cell Proliferation (percent of control) at 1000 fold-excess of soluble receptor (percent of control)	Cell Proliferation (percent of control) at 0.8 fold-excess of soluble receptor (percent of control)	Cell Proliferation (percent of control) at 1.6 fold-excess of soluble receptor (percent of control)	Cell Proliferation (percent of control) at 3.2 fold-excess of soluble receptor (percent of control)	Cell Proliferation (percent of control) at 6.3 fold-excess of soluble receptor (percent of control)	Cell Proliferation (percent of control) at 12.5 fold-excess of soluble receptor (percent of control)	Cell Proliferation (percent of control) at 25 fold-excess of soluble receptor (percent of control)	Cell Proliferation (percent of control) at 50 fold-excess of soluble receptor (percent of control)	Cell Proliferation (percent of control) at 100 fold-excess of soluble receptor (percent of control)	Substance
100	101	90	91	101	99									FGFR2α-IIIb/Fc soluble receptor (from UniProt P21802 22-378) (Fc fusion)
100						85	66	37	5	1	0.2	0	0	FGFR3α-IIIc/Fc soluble receptor (Fc fusion)
